Results taken from the supplement of paper PMC7125110.
± gives the standard error. For some of these results: Fewer inactive variants are shown than the library holds.

B1: glmS ribozyme (parent)
chain: AUAAAAGCGCCAGAACUACAGAAAUGUAGUUGACGAGGAGGAGGUUUAUCGAAUUUUCGGCGGAUGCCUCCAAA

What was measured:
Settings in all cases: with glucosamine-6-phosphate
glucosamine-6-phosphate [1] = variants of: B1; experiment: KM; higher = weaker cofactor use; RNA array
Outline: (§1)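 Barcoded ribozyme variants, transcribed in situ by E. coli RNA polymerase on sequenced MiSeq chips, were followed via a hybridised Cy3 probe at 37 °C. Glucosamine-6-phosphate ranged from 40 μM to 10 mM in HEPES/KCl/Mg(OAc)2 buffer. kobs came from decay fits to per-tile medians, and kcat and KM from weighted Michaelis–Menten fits.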

glucosamine-6-phosphate [2] = variants of: B1; experiment: self-cleavage kobs at 40 uM GlcN6P; higher = faster cleavage; RNA array
Outline: as §1

glucosamine-6-phosphate [3] = variants of: B1; experiment: self-cleavage kobs at 160 uM GlcN6P; higher = faster cleavage; RNA array
Outline: as §1

glucosamine-6-phosphate [4] = variants of: B1; experiment: self-cleavage kobs at 10000 uM GlcN6P; higher = faster cleavage; RNA array
Outline: as §1

glucosamine-6-phosphate [5] = variants of: B1; experiment: self-cleavage kobs at 640 uM GlcN6P; higher = faster cleavage; RNA array
Outline: as §1

glucosamine-6-phosphate [6] = variants of: B1; experiment: self-cleavage kobs at 2500 uM GlcN6P; higher = faster cleavage; RNA array
Outline: as §1

glucosamine-6-phosphate [7] = variants of: B1; experiment: kcat; higher = faster cleavage; RNA array
Outline: as §1

Row | Variant | KM (glucosamine-6-phosphate [1]) | self-cleavage kobs at 40 uM GlcN6P (glucosamine-6-phosphate [2]) | self-cleavage kobs at 160 uM GlcN6P (glucosamine-6-phosphate [3]) | self-cleavage kobs at 10000 uM GlcN6P (glucosamine-6-phosphate [4]) | self-cleavage kobs at 640 uM GlcN6P (glucosamine-6-phosphate [5]) | self-cleavage kobs at 2500 uM GlcN6P (glucosamine-6-phosphate [6]) | kcat (glucosamine-6-phosphate [7])
1 | G40A G44C | 2680 ± 1100 µM | – | – | – | – | – | –
2 | G13A C61G | 127 ± 17 µM | – | – | – | – | – | –
3 | G7U G38A | – | < 1e-05 s⁻¹ | < 1e-05 s⁻¹ | < 1e-05 s⁻¹ | – | – | –
4 | G7U G35U U46A C67U U69C | – | < 1e-05 s⁻¹ | < 1e-05 s⁻¹ | – | < 1e-05 s⁻¹ | < 1e-05 s⁻¹ | –
5 | G35A A48C | – | < 1e-05 s⁻¹ | < 1e-05 s⁻¹ | < 1e-05 s⁻¹ | < 1e-05 s⁻¹ | < 1e-05 s⁻¹ | –
6 | G29A C34A | – | < 1e-05 s⁻¹ | < 1e-05 s⁻¹ | < 1e-05 s⁻¹ | < 1e-05 s⁻¹ | < 1e-05 s⁻¹ | –
7 | A6C G60A | – | < 1e-05 s⁻¹ | – | – | < 1e-05 s⁻¹ | < 1e-05 s⁻¹ | –
8 | U47G G62A | – | < 1e-05 s⁻¹ | – | – | < 1e-05 s⁻¹ | – | –
9 | C11U U46G | 2460 ± 740 µM | – | – | 0.000204 ± 2.3e-05 s⁻¹ | 5.11e-05 ± 7.1e-06 s⁻¹ | 0.00018 ± 2.7e-05 s⁻¹ | 0.000268 ± 4.3e-05 s⁻¹
10 | C11G G59U | – | – | – | 9.62e-05 ± 1.5e-05 s⁻¹ | – | 0.000106 ± 2.1e-05 s⁻¹ | 0.000116 ± 2.9e-05 s⁻¹
11 | C67A U69G | – | – | – | – | 6.63e-05 ± 1.6e-05 s⁻¹ | 6.57e-05 ± 1.3e-05 s⁻¹ | 4.96e-05 ± 1.7e-05 s⁻¹
12 | U54C U69A | 82 ± 22 µM | 3.96e-05 ± 1.5e-05 s⁻¹ | 6.58e-05 ± 2.2e-05 s⁻¹ | 0.000105 ± 2e-05 s⁻¹ | 0.000111 ± 3.8e-05 s⁻¹ | 0.000123 ± 3.1e-05 s⁻¹ | 0.000112 ± 7.5e-06 s⁻¹
13 | A52G G62U | – | – | – | – | – | – | < 1e-05 s⁻¹
14 | A42C A64G | – | < 1e-05 s⁻¹ | < 1e-05 s⁻¹ | – | < 1e-05 s⁻¹ | – | –
15 | G40C U57A | – | < 1e-05 s⁻¹ | < 1e-05 s⁻¹ | – | – | – | –
16 | A53U U54C | 619 ± 200 µM | 0.000577 ± 7.7e-05 s⁻¹ | 0.0012 ± 0.00025 s⁻¹ | 0.00704 ± 0.001 s⁻¹ | 0.00401 ± 0.00061 s⁻¹ | 0.00897 ± 0.0018 s⁻¹ | 0.00788 ± 0.0015 s⁻¹
17 | A15C G41A C70U | – | 0.000261 ± 6.2e-05 s⁻¹ | – | 0.0111 ± 0.0023 s⁻¹ | – | – | –
18 | A6U A15C A48U U69G | – | < 1e-05 s⁻¹ | – | – | – | – | 2.37e-05 ± 7.1e-06 s⁻¹

Row | Variant | KM (glucosamine-6-phosphate [1]) | self-cleavage kobs at 40 uM GlcN6P (glucosamine-6-phosphate [2]) | self-cleavage kobs at 160 uM GlcN6P (glucosamine-6-phosphate [3]) | self-cleavage kobs at 10000 uM GlcN6P (glucosamine-6-phosphate [4]) | self-cleavage kobs at 640 uM GlcN6P (glucosamine-6-phosphate [5]) | self-cleavage kobs at 2500 uM GlcN6P (glucosamine-6-phosphate [6]) | kcat (glucosamine-6-phosphate [7])
19 | A39U C68G | 998 ± 310 µM | – | – | 0.000127 ± 1.3e-05 s⁻¹ | 5.37e-05 ± 7.8e-06 s⁻¹ | 0.000126 ± 1.2e-05 s⁻¹ | 0.000151 ± 1.6e-05 s⁻¹
20 | U31A U56G | 2950 ± 1500 µM | 0.000249 ± 5.8e-05 s⁻¹ | 0.000532 ± 0.00021 s⁻¹ | 0.0132 ± 0.0039 s⁻¹ | 0.00335 ± 0.00098 s⁻¹ | 0.00579 ± 0.0015 s⁻¹ | 0.0146 ± 0.0054 s⁻¹
21 | U30G A52C G62U | – | < 1e-05 s⁻¹ | – | < 1e-05 s⁻¹ | – | – | –
22 | C58U C67U | – | – | – | 2.01e-05 ± 6.4e-06 s⁻¹ | – | 2.92e-05 ± 8e-06 s⁻¹ | 2.38e-05 ± 3.4e-06 s⁻¹
23 | A53U G66A | 2370 ± 1000 µM | 0.000372 ± 5.2e-05 s⁻¹ | 0.000827 ± 0.00015 s⁻¹ | 0.0144 ± 0.0026 s⁻¹ | 0.00327 ± 0.00068 s⁻¹ | 0.00666 ± 0.0024 s⁻¹ | 0.0162 ± 0.0055 s⁻¹
24 | A64G | 2080 ± 150 µM | 0.000914 ± 1.8e-05 s⁻¹ | 0.0031 ± 0.0002 s⁻¹ | 0.0412 ± 0.0018 s⁻¹ | 0.0109 ± 0.0004 s⁻¹ | 0.0249 ± 0.0011 s⁻¹ | 0.0475 ± 0.0029 s⁻¹
25 | C50U G63A | – | < 1e-05 s⁻¹ | < 1e-05 s⁻¹ | – | – | – | < 1e-05 s⁻¹
26 | A42G U55C | 895 ± 430 µM | 0.000832 ± 0.00014 s⁻¹ | 0.00147 ± 0.00063 s⁻¹ | 0.0147 ± 0.0029 s⁻¹ | 0.0147 ± 0.0051 s⁻¹ | 0.0354 ± 0.016 s⁻¹ | –
27 | U49A G59U | – | – | – | – | – | – | 1.28e-05 ± 4.5e-06 s⁻¹
28 | G7C U56A G60U G62A | – | < 1e-05 s⁻¹ | – | – | – | – | –
29 | A6G C16U G32C G41U C68U | – | < 1e-05 s⁻¹ | – | < 1e-05 s⁻¹ | < 1e-05 s⁻¹ | < 1e-05 s⁻¹ | –
30 | G40U G59A | – | – | < 1e-05 s⁻¹ | – | < 1e-05 s⁻¹ | – | < 1e-05 s⁻¹
31 | A36G A48U | – | < 1e-05 s⁻¹ | < 1e-05 s⁻¹ | < 1e-05 s⁻¹ | < 1e-05 s⁻¹ | < 1e-05 s⁻¹ | –
32 | C10G G63C | – | < 1e-05 s⁻¹ | < 1e-05 s⁻¹ | – | < 1e-05 s⁻¹ | < 1e-05 s⁻¹ | –
33 | G43U G59A G60C | – | < 1e-05 s⁻¹ | – | < 1e-05 s⁻¹ | – | < 1e-05 s⁻¹ | –
34 | C16A C70G | – | – | – | 3.56e-05 ± 7.5e-06 s⁻¹ | 3.86e-05 ± 1.5e-05 s⁻¹ | 5.28e-05 ± 1e-05 s⁻¹ | 4.18e-05 ± 5e-06 s⁻¹
35 | C10U G59U | 2000 ± 700 µM | – | – | 2.16e-05 ± 1.1e-05 s⁻¹ | – | – | 2.6e-05 ± 1.8e-06 s⁻¹
36 | A14G G41U | 206 ± 99 µM | 0.00033 ± 4.5e-05 s⁻¹ | 0.000642 ± 0.00012 s⁻¹ | – | 0.00124 ± 0.00021 s⁻¹ | 0.00232 ± 0.00045 s⁻¹ | 0.00179 ± 0.00049 s⁻¹
